Measured values from patent publication US20210292396A1.
Changes are numbered by the printed parent chain.

Key:
Assay in all cases: cell-based or functional assay
[1] = target: Envelope protein of SIVmac251.30.SG3 (clade NA)
[2] = target: HIV Env of isolate DU172.17 (HIV)
[3] = target: HIV Env of isolate 6644.v2.c33 (HIV)
[4] = target: Env of HIV isolate T257-31 (clade AG) (HIV)
[5] = target: Env of HIV isolate TZBD.02 (clade C) (HIV)
[6] = target: Env of HIV isolate 3016.v5.c45 (clade D) (HIV)
[7] = target: HIV Env of isolate ZM109.4 (HIV)
[8] = target: HIV Env of isolate TZA125.17 (HIV)
[9] = target: HIV Env of isolate CNE20 (HIV)
[10] = target: Env of HIV isolate JRFL.JB (clade B) (HIV)
[11] = target: Env of HIV isolate P0402.c2.11 (clade G) (HIV)
[12] = target: Env of HIV isolate 620345.c1 (clade AE) (HIV)
[13] = target: Env of HIV isolate X2131.C1.B5 (clade G) (HIV)
[14] = target: HIV Env of isolate ZM249.1 (HIV)
[15] = target: Env of HIV isolate 288.38 (clade C) (HIV)
[16] = target: Env of HIV isolate 6785.v5.c14 (clade C) (HIV)
[17] = target: Env of HIV isolate 928-28 (clade AG) (HIV)
[18] = target: Env of HIV isolate 247-23 (clade D) (HIV)
[19] = target: Env of HIV isolate 89.6.DG (clade B) (HIV)
[20] = target: Env of HIV isolate 5768.04 (clade B) (HIV)
[21] = target: HIV Env of isolate UG021.16 (HIV)
[22] = target: Env of HIV isolate 00836-2.5 (clade C) (HIV)
[23] = target: Env of HIV isolate 25711-2.4 (clade C) (HIV)
[24] = target: Env of HIV isolate CM244.ec1 (clade AE) (HIV)
[25] = target: Env of HIV isolate 235-47 (clade AG) (HIV)
[26] = target: HIV Env of isolate CNE30 (HIV)
[27] = target: Env of HIV isolate MB201.A1 (clade A) (HIV)
[28] = target: Env of HIV isolate KER2018.11 (clade A) (HIV)
[29] = target: Env of HIV isolate CNE31 (clade C) (HIV)
[30] = target: HIV Env of isolate CH181.12 (HIV)
[31] = target: Env of HIV isolate BJOX028000.10.3 (clade AE) (HIV)
[32] = target: Env of HIV isolate 3326.v4.c3 (clade CD) (HIV)
[33] = target: Env of HIV isolate T266-60 (clade AG) (HIV)
[34] = target: Env of HIV isolate UG024.2 (clade D) (HIV)
[35] = target: HIV Env of isolate UG024.2 (HIV)
[36] = target: Env of HIV isolate T33-7 (clade AG) (HIV)
[37] = target: Env of HIV isolate 3168.v4.c10 (clade C) (HIV)
[38] = target: Env of HIV isolate Q769.d22 (clade A) (HIV)
[39] = target: HIV Env of isolate ZM55.28a (HIV)
[40] = target: Env of HIV isolate T280-5 (clade AG) (HIV)
[41] = target: Env of HIV isolate BJOX002000.03.2 (clade BC) (HIV)
[42] = target: HIV Env of isolate 16845-2.22 (HIV)
[43] = target: Env of HIV isolate ZM233.6 (clade C) (HIV)
[44] = target: Env of HIV isolate X1632.S2.B10 (clade G) (HIV)
[45] = target: Env of HIV isolate AC10.29 (clade B) (HIV)
[46] = target: Env of HIV isolate BB539.2B13 (clade A) (HIV)
[47] = target: Env of HIV isolate 3337.v2.c6 (clade CD) (HIV)
[48] = target: Env of HIV isolate 426c (clade C) (HIV)
[49] = target: Env of HIV isolate Q168.a2 (clade AD) (HIV)
[50] = target: Env of HIV isolate ADA.DG (clade B) (HIV)

B1: ePGT121.18 (ePGT121.18.H1 VH and ePGT121.17.L1 VL) (antibody, V domains shown)
VH: QMQLQESGPGLVKPGETLSLTCSVSGASISSSYWSWLRETPGKGLEWIGYTHHSGDTNYAPSLKSRVHLGLHPSKNQVSLSLTSVTAADTAVYYCARTLHGRRIYGVVAFNEYYTYFYWPTWGKGTQVTVSS
VL: SDISVAPGETVRITCGGESIGSRAVQWYQHRPGQAPRLIIYNNQDRPPGIPERFSGSPDIDFGTTATLTISNVEAGDEATYYCHIWDSRRPTNWELGPGTTLTVL
IC50, pseudovirus neutralization [1]: > 50 µg/mL | IC80, pseudovirus neutralization (M1) [2]: 0.005 µg/mL | IC80, pseudovirus neutralization (M2) [2]: 0.005 µg/mL | IC80, pseudovirus neutralization (M1) [3]: 0.005 µg/mL | IC80, pseudovirus neutralization (M2) [3]: 0.006 µg/mL | IC50, pseudovirus neutralization [4]: > 50 µg/mL | IC50, pseudovirus neutralization [5]: 0.002 µg/mL | IC50, pseudovirus neutralization [6]: > 50 µg/mL | IC80, pseudovirus neutralization (M1) [7]: > 50 µg/mL | IC80, pseudovirus neutralization (M2) [7]: > 50 µg/mL | IC80, pseudovirus neutralization (M1) [8]: 0.137 µg/mL | IC80, pseudovirus neutralization (M2) [8]: 0.186 µg/mL | IC80, pseudovirus neutralization (M1) [9]: 0.003 µg/mL | IC80, pseudovirus neutralization (M2) [9]: 0.004 µg/mL | IC50, pseudovirus neutralization [10]: 0.006 µg/mL | IC50, pseudovirus neutralization [11]: 0.002 µg/mL | IC50, pseudovirus neutralization [12]: > 50 µg/mL | IC50, pseudovirus neutralization [13]: 0.0009 µg/mL | IC80, pseudovirus neutralization (M1) [14]: 0.992 µg/mL | IC80, pseudovirus neutralization (M2) [14]: 0.874 µg/mL | IC50, pseudovirus neutralization [15]: 0.0008 µg/mL | IC50, pseudovirus neutralization [16]: 0.002 µg/mL | IC50, pseudovirus neutralization [17]: 0.076 µg/mL | IC50, pseudovirus neutralization [18]: > 50 µg/mL | IC50, pseudovirus neutralization [19]: 0.001 µg/mL | IC50, pseudovirus neutralization [20]: 0.004 µg/mL | IC80, pseudovirus neutralization (M1) [21]: 0.02 µg/mL | IC80, pseudovirus neutralization (M2) [21]: 0.019 µg/mL | IC50, pseudovirus neutralization [22]: 14.4 µg/mL | IC50, pseudovirus neutralization [23]: 0.002 µg/mL | IC50, pseudovirus neutralization [24]: 0.46 µg/mL | IC50, pseudovirus neutralization [25]: 0.006 µg/mL | IC80, pseudovirus neutralization (M1) [26]: 0.013 µg/mL | IC80, pseudovirus neutralization (M2) [26]: 0.016 µg/mL | IC50, pseudovirus neutralization [27]: 0.001 µg/mL | IC50, pseudovirus neutralization [28]: > 50 µg/mL | IC50, pseudovirus neutralization [29]: 0.015 µg/mL | IC80, pseudovirus neutralization (M1) [30]: 0.003 µg/mL | IC80, pseudovirus neutralization (M2) [30]: 0.004 µg/mL | IC50, pseudovirus neutralization [31]: 0.054 µg/mL | IC50, pseudovirus neutralization [32]: 0.306 µg/mL | IC50, pseudovirus neutralization [33]: 0.003 µg/mL | IC50, pseudovirus neutralization [34]: 2.36 µg/mL | IC80, pseudovirus neutralization (M1) [35]: > 50 µg/mL | IC80, pseudovirus neutralization (M2) [35]: > 50 µg/mL | IC50, pseudovirus neutralization [36]: > 50 µg/mL | IC50, pseudovirus neutralization [37]: 0.012 µg/mL | IC50, pseudovirus neutralization [38]: > 50 µg/mL | IC80, pseudovirus neutralization (M1) [39]: 0.014 µg/mL | IC80, pseudovirus neutralization (M2) [39]: 0.014 µg/mL | IC50, pseudovirus neutralization [40]: 0.002 µg/mL | IC50, pseudovirus neutralization [41]: 0.002 µg/mL | IC80, pseudovirus neutralization (M1) [42]: 0.127 µg/mL | IC80, pseudovirus neutralization (M2) [42]: 0.105 µg/mL | IC50, pseudovirus neutralization [43]: 0.006 µg/mL | IC50, pseudovirus neutralization [44]: > 50 µg/mL | IC50, pseudovirus neutralization [45]: 0.001 µg/mL | IC50, pseudovirus neutralization [46]: > 50 µg/mL | IC50, pseudovirus neutralization [47]: 0.232 µg/mL | IC50, pseudovirus neutralization [48]: 0.065 µg/mL | IC50, pseudovirus neutralization [49]: 2.93 µg/mL | IC50, pseudovirus neutralization [50]: 0.002 µg/mL

B2: ePGT121.18.17 (ePGT121.18.H17 VH and ePGT121.17.L1 VL) (antibody, V domains shown)
VH: B1 VH with H68T, L69I, H72D
VL: B1 VL
IC50, pseudovirus neutralization [1]: > 50 µg/mL | IC80, pseudovirus neutralization [2]: 0.018 µg/mL | IC80, pseudovirus neutralization [3]: 0.015 µg/mL | IC50, pseudovirus neutralization [4]: > 50 µg/mL | IC50, pseudovirus neutralization [5]: 0.003 µg/mL | IC50, pseudovirus neutralization [6]: > 50 µg/mL | IC80, pseudovirus neutralization [7]: > 50 µg/mL | IC80, pseudovirus neutralization [8]: 0.549 µg/mL | IC80, pseudovirus neutralization [9]: 0.005 µg/mL | IC50, pseudovirus neutralization [10]: 0.011 µg/mL | IC50, pseudovirus neutralization [11]: 0.004 µg/mL | IC50, pseudovirus neutralization [12]: > 50 µg/mL | IC50, pseudovirus neutralization [13]: 0.002 µg/mL | IC80, pseudovirus neutralization [14]: 4.25 µg/mL | IC50, pseudovirus neutralization [15]: 0.002 µg/mL | IC50, pseudovirus neutralization [16]: 0.005 µg/mL | IC50, pseudovirus neutralization [17]: 0.462 µg/mL | IC50, pseudovirus neutralization [18]: > 50 µg/mL | IC50, pseudovirus neutralization [19]: 0.004 µg/mL | IC50, pseudovirus neutralization [20]: 0.029 µg/mL | IC80, pseudovirus neutralization [21]: 0.078 µg/mL | IC50, pseudovirus neutralization [22]: 48.9 µg/mL | IC50, pseudovirus neutralization [23]: 0.006 µg/mL | IC50, pseudovirus neutralization [24]: 7.23 µg/mL | IC50, pseudovirus neutralization [25]: 0.022 µg/mL | IC80, pseudovirus neutralization [26]: 0.047 µg/mL | IC50, pseudovirus neutralization [27]: 0.004 µg/mL | IC50, pseudovirus neutralization [28]: > 50 µg/mL | IC50, pseudovirus neutralization [29]: 0.089 µg/mL | IC80, pseudovirus neutralization [30]: 0.011 µg/mL | IC50, pseudovirus neutralization [31]: 0.338 µg/mL | IC50, pseudovirus neutralization [32]: 0.633 µg/mL | IC50, pseudovirus neutralization [33]: 0.014 µg/mL | IC50, pseudovirus neutralization [34]: 0.429 µg/mL | IC80, pseudovirus neutralization [35]: > 50 µg/mL | IC50, pseudovirus neutralization [36]: > 50 µg/mL | IC50, pseudovirus neutralization [37]: 0.053 µg/mL | IC50, pseudovirus neutralization [38]: > 50 µg/mL | IC80, pseudovirus neutralization [39]: 0.029 µg/mL | IC50, pseudovirus neutralization [40]: 0.006 µg/mL | IC50, pseudovirus neutralization [41]: 0.004 µg/mL | IC80, pseudovirus neutralization [42]: 0.629 µg/mL | IC50, pseudovirus neutralization [43]: 0.017 µg/mL | IC50, pseudovirus neutralization [44]: > 50 µg/mL | IC50, pseudovirus neutralization [45]: 0.004 µg/mL | IC50, pseudovirus neutralization [46]: > 50 µg/mL | IC50, pseudovirus neutralization [47]: 0.363 µg/mL | IC50, pseudovirus neutralization [48]: 0.26 µg/mL | IC50, pseudovirus neutralization [49]: 1.52 µg/mL | IC50, pseudovirus neutralization [50]: 0.005 µg/mL

B3: ePGT121.15.H2.L1 (antibody, V domains shown)
VH: B1 VH with Y113W, Y114F, P120E, T121V
VL: B1 VL with T14S, P32A, R37K, S71T, E95V, L96F, P98G
neutralization (Table 6 value) [9]: 0.000538 | neutralization (Table 6 value) [26]: 0.00312
